Reference: PMC3192995

Columns and labels:
Experiment in all cases: two-hybrid
[1] = biological target: PwHAP5, full-length coding region, fused in pGBKT7 (yeast two-hybrid bait) (Picea wilsonii)
[2] = biological target: PwHAP5 N77, residues 1-77, fused in pGBKT7 (yeast two-hybrid bait) (Picea wilsonii)
[3] = biological target: PwHAP5 C130, residues 92-221, fused in pGBKT7 (yeast two-hybrid bait) (Picea wilsonii)

Measured: fold beta-galactosidase activity over the controls

PwFKBP12 in pGADT7-Rec (yeast two-hybrid prey) (natural protein)
20 fold: all assays above
